Assay results as given in US20230277689.

B1: plasma purified human CFI (Comptech) (protein)
chain: KVTYTSQEDLVEKKCLAKKYTHLSCDKVFCQPWQRCIEGTCVCKLPYQCPKNGTAVCATNRRSFPTYCQQKSLECLHPGTKFLNNGTCTAEGKFSVSLKHGNTDSEGIVEVKLVDQDKTMFICKSSWSMREANVACLDLGFQQGADTQRRFKLSDLSINSTECLHVHCRGLETSLAECTFTKRRTMGYQDFADVVCYTQKADSPMDDFFQCVNGKYISQMKACDGINDCGDQSDELCCKACQGKGFHCKSGVCIPSQYQCNGEVDCITGEDEVGCAGFASVTQEETEILTADMDAERRRIKSLLPKLSCGVKNRMHIRRKRIVGGKRAQLGDLPWQVAIKDASGITCGGIYIGGCWILTAAHCLRASKTHRYQIWTTVVDWIHPDLKRIVIEYVDRIIFHENYNAGTYQNDIALIEMKKDGNKKDCELPRSIPACVPWSPYLFQPNDTCIVSGWGREKDNERVFSLQWGEVKLISNCSKFYGNRFYEKEMECAGTYDGSIDACKGDSGGPLVCMDANNVTYVWGVVSWGENCGKPEFPGVYTKVANYFDWISYHVGRPFISQYNV
B2: human Complement Factor I expressed from pAAV.CFI / AAV.CFI (cDNA of SEQ ID NO: 2, Genbank NM_000204.4) (protein)
chain: KVTYTSQEDLVEKKCLAKKYTHLSCDKVFCQPWQRCIEGTCVCKLPYQCPKNGTAVCATNRRSFPTYCQQKSLECLHPGTKFLNNGTCTAEGKFSVSLKHGNTDSEGIVEVKLVDQDKTMFICKSSWSMREANVACLDLGFQQGADTQRRFKLSDLSINSTECLHVHCRGLETSLAECTFTKRRTMGYQDFADVVCYTQKADSPMDDFFQCVNGKYISQMKACDGINDCGDQSDELCCKACQGKGFHCKSGVCIPSQYQCNGEVDCITGEDEVGCAGFASVAQEETEILTADMDAERRRIKSLLPKLSCGVKNRMHIRRKRIVGGKRAQLGDLPWQVAIKDASGITCGGIYIGGCWILTAAHCLRASKTHRYQIWTTVVDWIHPDLKRIVIEYVDRIIFHENYNAGTYQNDIALIEMKKDGNKKDCELPRSIPACVPWSPYLFQPNDTCIVSGWGREKDNERVFSLQWGEVKLISNCSKFYGNRFYEKEMECAGTYDGSIDACKGDSGGPLVCMDANNVTYVWGVVSWGENCGKPEFPGVYTKVANYFDWISYHVGRPFISQYNV
B3: human Complement Factor I expressed from pAAV.CFIco / AAV.CFIco (codon-optimised cDNA of SEQ ID NO: 8) (protein)
chain: KVTYTSQEDLVEKKCLAKKYTHLSCDKVFCQPWQRCIEGTCVCKLPYQCPKNGTAVCATNRRSFPTYCQQKSLECLHPGTKFLNNGTCTAEGKFSVSLKHGNTDSEGIVEVKLVDQDKTMFICKSSWSMREANVACLDLGFQQGADTQRRFKLSDLSINSTECLHVHCRGLETSLAECTFTKRRTMGYQDFADVVCYTQKADSPMDDFFQCVNGKYISQMKACDGINDCGDQSDELCCKACQGKGFHCKSGVCIPSQYQCNGEVDCITGEDEVGCAGFASVTQEETEILTADMDAERRRIKSLLPKLSCGVKNRMHIRRKRIVGGKRAQLGDLPWQVAIKDASGITCGGIYIGGCWILTAAHCLRASKTHRYQIWTTVVDWIHPDLKRIVIEYVDRIIFHENYNAGTYQNDIALIEMKKDGNKKDCELPRSIPACVPWSPYLFQPNDTCIVSGWGREKDNERVFSLQWGEVKLISNCSKFYGNRFYEKEMECAGTYDGSIDACKGDSGGPLVCMDANNVTYVWGVVSWGENCGKPEFPGVYTKVANYFDWISYHVGRPFISQYNV

The proteins below were run against plasma purified C3b (Comptech), P01024.
Chain of plasma purified C3b (Comptech), P01024 (P01024 whole entry, looked up): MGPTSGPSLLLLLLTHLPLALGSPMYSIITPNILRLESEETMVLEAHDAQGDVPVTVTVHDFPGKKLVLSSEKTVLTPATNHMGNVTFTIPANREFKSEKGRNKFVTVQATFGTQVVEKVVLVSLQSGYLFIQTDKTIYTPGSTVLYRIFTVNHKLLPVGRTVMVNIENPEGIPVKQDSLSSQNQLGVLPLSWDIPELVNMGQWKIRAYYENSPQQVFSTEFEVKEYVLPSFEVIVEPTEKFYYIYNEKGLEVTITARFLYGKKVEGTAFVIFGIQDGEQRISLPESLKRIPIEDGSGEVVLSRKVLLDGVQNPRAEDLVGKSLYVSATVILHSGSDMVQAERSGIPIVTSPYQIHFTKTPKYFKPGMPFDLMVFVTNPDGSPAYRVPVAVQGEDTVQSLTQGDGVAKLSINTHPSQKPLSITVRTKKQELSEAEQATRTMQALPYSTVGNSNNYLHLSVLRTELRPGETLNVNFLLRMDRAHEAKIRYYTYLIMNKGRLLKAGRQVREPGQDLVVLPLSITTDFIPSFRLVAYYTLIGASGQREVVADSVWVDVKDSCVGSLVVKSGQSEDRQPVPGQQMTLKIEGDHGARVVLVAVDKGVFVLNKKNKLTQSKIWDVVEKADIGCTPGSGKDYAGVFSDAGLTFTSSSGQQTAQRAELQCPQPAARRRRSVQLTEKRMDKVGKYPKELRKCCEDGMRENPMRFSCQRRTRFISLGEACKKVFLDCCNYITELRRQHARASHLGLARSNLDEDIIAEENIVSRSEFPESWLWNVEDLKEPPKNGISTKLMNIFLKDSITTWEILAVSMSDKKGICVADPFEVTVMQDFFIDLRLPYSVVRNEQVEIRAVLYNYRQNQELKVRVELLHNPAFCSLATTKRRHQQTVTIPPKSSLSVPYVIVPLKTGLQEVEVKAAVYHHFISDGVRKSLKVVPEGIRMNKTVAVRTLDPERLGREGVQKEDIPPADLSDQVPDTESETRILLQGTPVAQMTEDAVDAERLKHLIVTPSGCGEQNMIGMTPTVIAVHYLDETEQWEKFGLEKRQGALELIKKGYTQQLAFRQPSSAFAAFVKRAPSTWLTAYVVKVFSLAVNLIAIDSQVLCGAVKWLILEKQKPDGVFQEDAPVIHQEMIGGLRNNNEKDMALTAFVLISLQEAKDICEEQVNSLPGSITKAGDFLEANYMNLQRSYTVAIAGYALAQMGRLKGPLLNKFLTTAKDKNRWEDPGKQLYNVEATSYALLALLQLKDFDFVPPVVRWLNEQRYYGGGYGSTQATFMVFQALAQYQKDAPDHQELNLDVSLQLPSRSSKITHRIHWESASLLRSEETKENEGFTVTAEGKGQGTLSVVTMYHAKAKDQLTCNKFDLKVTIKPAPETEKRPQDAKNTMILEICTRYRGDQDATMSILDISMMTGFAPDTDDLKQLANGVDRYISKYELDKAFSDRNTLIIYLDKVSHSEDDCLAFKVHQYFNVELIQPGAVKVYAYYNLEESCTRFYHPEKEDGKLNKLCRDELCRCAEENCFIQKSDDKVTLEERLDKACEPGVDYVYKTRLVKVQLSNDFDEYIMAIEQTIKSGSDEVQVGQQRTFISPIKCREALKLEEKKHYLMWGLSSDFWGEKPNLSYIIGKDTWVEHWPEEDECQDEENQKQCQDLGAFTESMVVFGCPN

How did the “C3b cleavage assay (with CFH as co-factor; immunoblot with clone 9)” value (from here on “C3b cleavage assay”) turn out when B1 was run?
The value was “C3b is degraded by CFIpl to iC3b and C3dg”.

For B2, which “C3b cleavage assay” value is on record?
The value was “CFI secreted from transduced cell lines is functionally active and cleaves the α-chain of C3b to iC3b”.

Which “C3b cleavage assay” value does the source give for B3 here?
Its value is “CFI secreted from transduced cell lines is functionally active and cleaves the α-chain of C3b to iC3b”.
